Measured values: article PMC8167299, “Cardio- and reno-protective effects of dipeptidyl peptidase III in diabetic mice” (The Journal of Biological Chemistry, 2021)
Where no end group is shown, it is not given here.

Key:
[1] = tested on: U937 macrophage-like cells on a monolayer of HUVECs; test: Transmigration assay of U937 cells across a HUVEC monolayer (Transwell); format: cell-based, human; conditions: presence of PKC inhibitor vs DMSO
Protocol: The upper inserts (5.0 μm pore size) of Chemotaxicells (Kurabo Industries, Ltd) were coated with 100 μg fibronectin (Sigma-Aldrich). HUVECs were seeded on the insert and cultured for 48 h to form an endothelial monolayer. […] The number of U937 cells that migrated into the lower wells was counted using the Counting chamber (ERMA Inc).

RhoA = test: Pull-down assay for GTP-bound active RhoA in HUVECs; format: cell-based, human; conditions: presence of PKC inhibitor vs DMSO
Protocol: These experiments were performed as described previously with some modifications ([70]). Briefly, total cell lysates were obtained using the RIPA lysis buffer (50 mmol/l Tris-HCl [pH 7.5], 150 mmol/l NaCl, 0.5% deoxycholate sodium, 0.1% SDS, 1% Nonidet P-40, and 100 mM PMSF). The samples were separated by SDS-PAGE and blotted on a polyvinylidene difluoride membrane. The membrane was sequentially incubated with primary Ab and horseradish peroxidase (HRP)-labeled secondary Ab, followed by treatment with HRP substrate (Luminata Forte, Millipore Corp). The target protein band was observed using the luminescent image analyzer LAS-4000 (Fujifilm Life Science). The pull-down assay was performed as described previously with some modifications ([71]). Briefly, the cell lysates were incubated with glutathione S-transferase-fused mDia Rho-binding domain and glutathione-sepharose beads (GE Healthcare) at 2 °C to collect active GTP-bound RhoA.

SGLT2 = conditions: cited from earlier work
Excerpt: DM patients have a high mortality rate, mainly due to DM-related heart and/or kidney failure ([35], [43]). Pathologically, heart dysfunction exacerbates kidney damage, while renal injury negatively affects cardiac function. […] To reduce diabetic complications in tissues and organs, particularly in the heart and kidney, great effort has been made to develop effective medicines and therapeutics for DM. Among these, much attention ...

C3a receptor (C3aR) = target: T1, C3a receptor (C3aR) (Homo sapiens, UniProt Q16581); test: Cell surface attachment of FITC-Peptide 2 on HUVECs through C3aR; format: binding; conditions: C3aR-knockdown (siC3aR #2) vs scramble RNA-transfected HUVECs; 2 h at 4 °C
T1 construct: host or cells: HUVECs
T1 sequence (Q16581 1-482): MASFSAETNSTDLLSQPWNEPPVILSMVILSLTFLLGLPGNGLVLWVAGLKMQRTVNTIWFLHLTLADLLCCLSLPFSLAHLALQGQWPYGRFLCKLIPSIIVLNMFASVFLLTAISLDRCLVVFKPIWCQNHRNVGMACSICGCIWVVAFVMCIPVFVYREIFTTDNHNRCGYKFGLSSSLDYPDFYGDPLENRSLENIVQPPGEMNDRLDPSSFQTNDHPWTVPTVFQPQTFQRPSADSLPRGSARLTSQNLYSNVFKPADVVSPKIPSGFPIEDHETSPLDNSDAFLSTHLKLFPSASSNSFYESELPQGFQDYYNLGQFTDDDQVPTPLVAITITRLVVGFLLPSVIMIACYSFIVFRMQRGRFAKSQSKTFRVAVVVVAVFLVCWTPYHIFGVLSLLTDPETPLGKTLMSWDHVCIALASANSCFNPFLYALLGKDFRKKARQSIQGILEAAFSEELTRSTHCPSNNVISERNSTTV
Protocol: The expression level of C3a receptor 1 (C3aR) was evaluated by semiquantitative PCR. mRNA was extracted using TRIzol RNA isolation reagent (Thermo Fisher Scientific), and cDNA was synthesized using ReverTra Ace (Toyobo). PCR was performed using rTaq DNA polymerase (TaKaRa Bio Inc). The band densities of PCR products were quantified using the ImageJ software. The mRNA expression level of C3aR was adjusted to that of β-actin as an internal control. Primer sequences for the experiments were as follows: C3aR forward 5′-[…]-3′ and reverse 5′-[…]-3′; β-actin forward 5′-[…]-3′ and reverse 5′-[…]-3′. To silence C3aR expression in HUVECs, siRNA against C3aR (#1: 5′-[…]-3′, #2: 5′-[…]-3′) was transfected into the cells with RNAiMAX (Thermo Fisher Scientific), and the cells were cultured for 2 days.
FITC-conjugated Peptide 2 was generated by Biologica Co. HUVECs, in which C3aR was or was not knocked down, were incubated with the indicated concentrations of FITC-Peptide 2 for 2 h at 4 °C. Subsequently, the cells were washed with PBS three times and labeled with tetramethylrhodamine-WGA (Thermo Fisher Scientific). Following fixation with 4% paraformaldehyde, the attached peptides on the cell surface were observed using a Leica SP8 microscope (Leica Microsystems).

db/m mice = test: Peptide 2 or control peptide administration for 8 weeks in nondiabetic db/m mice; format: in vivo, mouse; conditions: for Heart rate during echocardiography: db/m mice, isoflurane anesthesia, average ± SD, n= 7
db/db mice [2] = conditions: mouse, in vivo, iv
Protocol: We examined the in vivo cytotoxicity of Peptide 2 by intravenous injection of this peptide (0.5 μg/g body weight) into mice.
Following euthanasia of the mice by cervical dislocation, they were perfused with PBS, and the heart and kidney were extracted. The extracted organs were snap-frozen in liquid nitrogen within a block of water-soluble medium (Surgipath FSC 22, Leica Biosystems) or fixed with 4% paraformaldehyde and subsequently embedded in paraffin blocks. Regarding the frozen samples, they were sectioned in 10 μm thick using a cryostat (Leica Biosystems), fixed with 4% paraformaldehyde on top of poly-L-lysine-coated slides, permeabilized with 0.1% Triton X-100, and blocked with 1% bovine serum albumin (BSA). Primary antibodies (Abs) (see below) were applied in the BSA blocking solution at 4 °C overnight, followed by 1 h incubation at room temperature with fluorescent dye-labeled secondary Abs. Paraffin sections, 4 μm thick, were stained with H-E, WGA (1:500 dilution) (Thermo Fisher Scientific) or Sirius red (1:1000 dilution) (Fujifilm Wako Pure Chemical Corporation) using standard techniques. Confocal images were taken using a Leica SP8 microscope (Leica Microsystems). […] As described previously ([68]), at least three random fields were selected from the four sections in each heart to quantify the extent of fibrotic or immunopositive area using ImageJ software.

db/db mice [3] = tested on: db/db mice
[4] = tested on: AngII-stimulated hypertensive mice; conditions: AngII-stimulated hypertensive vs normotensive mice; cited from earlier work
[5] = nondiabetic db/m mice, 8-week administration
[6] = DPPIII 10 μg/g iv, after 8 weeks
[7] = DPPIII 10 μg/g iv, after 8 weeks, vs PBS

## Cn1c2ccccc2c2c3c(c4c5ccccc5n(CCC#N)c4c21)CNC3=O [PKC inhibitor, Gö6976]
[1]
  Effect on Peptide-2-induced U937 transendothelial migration: inhibited in the presence of PKC inhibitor
RhoA
  Effect on Peptide-2-induced RhoA activation: inhibited in the presence of PKC inhibitor

## Cc1ccc([C@@H]2O[C@H](CO)[C@@H](O)[C@H](O)[C@H]2O)cc1Cc1ccc(-c2ccc(F)cc2)s1 [canagliflozin]
SGLT2
  Heart failure and DKD in DM patients: improves heart failure and DKD

## FITC-Peptide 2: fluorescein isothiocyanate (FITC)-conjugated Peptide 2 (RLLWENGNL; also: FITC-conjugated, position not given here)
C3a receptor (C3aR)
  FITC-Peptide 2 attachment on the cells (fluorescence microscopy): significantly reduced in C3aR-knockdown HUVECs

## IAFSQYLQK [control peptide, reference compound]
db/m mice; week 0
  Heart rate during echocardiography: 410 ± 30
db/m mice; week 4
  Heart rate during echocardiography: 423 ± 32
db/m mice; week 8
  Heart rate during echocardiography: 407 ± 30

## RLLWENGNL [Peptide 2]
db/m mice; week 0
  Heart rate during echocardiography: 417 ± 32
db/m mice; week 4
  Heart rate during echocardiography: 402 ± 41
db/m mice; week 8
  Heart rate during echocardiography: 414 ± 42
db/m mice; [5]
  Body weight, blood glucose level, or hemodynamics: did not affect
  Deteriorative effects on the organs (heart and kidney): not observed in db/m mice
db/db mice [2]
  Desmin deposition and microvasculature disruption in the glomeruli: highly enhanced

B1: dipeptidyl peptidase III (protein, UniProt Q9NY33 2-737, looked up)
Dipeptidyl peptidase 3: ADTQYILPNDIGVSSLDCREAFRLLSPTERLYAYHLSRAAWYGGLAVLLQTSPEAPYIYALLSRLFRAQDPDQLRQHALAEGLTEEEYQAFLVYAAGVYSNMGNYKSFGDTKFVPNLPKEKLERVILGSEAAQQHPEEVRGLWQTCGELMFSLEPRLRHLGLGKEGITTYFSGNCTMEDAKLAQDFLDSQNLSAYNTRLFKEVDGEGKPYYEVRLASVLGSEPSLDSEVTSKLKSYEFRGSPFQVTRGDYAPILQKVVEQLEKAKAYAANSHQGQMLAQYIESFTQGSIEAHKRGSRFWIQDKGPIVESYIGFIESYRDPFGSRGEFEGFVAVVNKAMSAKFERLVASAEQLLKELPWPPTFEKDKFLTPDFTSLDVLTFAGSGIPAGINIPNYDDLRQTEGFKNVSLGNVLAVAYATQREKLTFLEEDDKDLYILWKGPSFDVQVGLHELLGHGSGKLFVQDEKGAFNFDQETVINPETGEQIQSWYRSGETWDSKFSTIASSYEECRAESVGLYLCLHPQVLEIFGFEGADAEDVIYVNWLNMVRAGLLALEFYTPEAFNWRQAHMQARFVILRVLLEAGEGLVTITPTTGSDGRPDARVRLDRSKIRSVGKPALERFLRRLQVLKSTGDVAGGRALYEGYATVTDAPPECFLTLRDTVLLRKESRKLIVQPNTRLEGSDVQLLEYEASAAGLIRSFSERFPEDGPELEEILTQLATADARFWKGPSEAPSGQA
notes: aminopeptidase that cleaves specific dipeptides from the N terminus of relatively small peptides
db/db mice [3]; DPPIII 10 μg/g body weight iv three times weekly for 8 weeks, vs PBS
  Body weight and blood glucose level (increase during the experimental period): unaffected by DPPIII treatment
db/db mice [3]; DPPIII 10 μg/g iv, 8 weeks
  Left ventricular dimensions and systolic functions (echocardiography): not significantly changed
db/db mice [3]; DPPIII 10 μg/g iv, 8 weeks, 24 h urine, SDS-PAGE, Coomassie staining
  Urine albumin excretion (albuminuria): the increase was blocked by DPPIII treatment
db/db mice [3]; DPPIII 10 μg/g iv, 8 weeks, vs PBS
  Cardiac diastolic functions (pulse-wave and tissue Doppler echocardiography): improved the impaired diastolic functions
db/db mice [3]; [6]
  Desmin deposition in the glomeruli: almost totally reversed by DPPIII treatment
  Disruption of glomerular microvasculature (CD31 staining): recovered
  Morphology and size of cardiomyocytes (H-E and WGA staining): unchanged by DPPIII treatment
  Plasma cholesterol or triglyceride levels: no effects
  Podocyte foot process damage (electron microscopy): ameliorated by DPPIII treatment
db/db mice [3]; [7]
  Cardiac fibrosis (Sirius red staining): reduced by DPPIII treatment
  Infiltration of CD68-positive inflammatory cells in the heart: reversed
db/db mice [3]; after 8-week DPPIII administration, vs PBS-infused db/db mice
  Plasma concentration of Peptide 2 (SRM): clearly reduced
[4]
  Blood-pressure-lowering effect: BP-lowering effects were observed specifically in AngII-stimulated hypertensive mice, but not in normotensive mice
